Experiments:
[1] = biological target: T1, GST-tagged NPI-1 (importin α5), full-length (human, UniProt P52294 1-538); test: pull-down; settings: both partners purified
T1 construct: also called GST-NPI-1; SPR1; source: E. coli BL21 CodonPlus (DE3)-RIL, purified (Glutathione Sepharose 4FF)

[2] = biological target: T2, Qip1 (importin α3), full-length, GST cleaved (human, UniProt O00629 1-521); test: SPR; settings: both partners purified
T2 construct: also called Qip1_(full); full-length Qip1; source: E. coli BL21 CodonPlus (DE3)-RIL, purified (Glutathione Sepharose 4FF), GST cleaved with PreScission protease
T2 sequence (looked up): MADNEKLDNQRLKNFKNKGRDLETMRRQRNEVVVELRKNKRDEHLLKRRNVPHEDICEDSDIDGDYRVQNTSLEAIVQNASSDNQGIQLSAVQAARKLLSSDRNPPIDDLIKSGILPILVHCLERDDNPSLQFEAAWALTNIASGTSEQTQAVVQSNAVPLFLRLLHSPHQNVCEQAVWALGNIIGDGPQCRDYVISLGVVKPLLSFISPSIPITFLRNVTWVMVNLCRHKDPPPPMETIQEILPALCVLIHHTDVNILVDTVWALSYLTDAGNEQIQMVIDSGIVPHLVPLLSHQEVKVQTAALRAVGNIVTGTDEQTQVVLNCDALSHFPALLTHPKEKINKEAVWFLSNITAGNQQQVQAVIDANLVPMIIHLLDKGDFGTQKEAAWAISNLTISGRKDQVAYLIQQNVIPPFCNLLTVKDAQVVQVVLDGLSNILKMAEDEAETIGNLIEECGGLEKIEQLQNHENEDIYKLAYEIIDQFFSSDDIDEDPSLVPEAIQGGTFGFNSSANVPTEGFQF

[3] = biological target: T3, NPI-1 (importin α5), full-length, GST cleaved (human, UniProt P52294 1-538); test: SPR; settings: both partners purified
T3 construct: also called NPI-1_(full); full-length NPI-1; source: E. coli BL21 CodonPlus (DE3)-RIL, purified (Glutathione Sepharose 4FF), GST cleaved with PreScission protease

[4] = biological target: T4, Rch1 404–529 C-terminal peptide mutant, GST cleaved (human, UniProt P52292 404-529); test: SPR; settings: both partners purified
T4 construct: also called Rch1 C-terminal peptide; source: E. coli BL21 CodonPlus (DE3)-RIL, purified (Glutathione Sepharose 4FF), GST cleaved with PreScission protease

[5] = biological target: T5, Qip1 392–537 C-terminal peptide mutant, GST cleaved (human, UniProt O00629 392-521); test: SPR; settings: both partners purified
T5 construct: also called Qip1 394–521 (methods); source: E. coli BL21 CodonPlus (DE3)-RIL, purified (Glutathione Sepharose 4FF), GST cleaved with PreScission protease
T5 sequence (looked up): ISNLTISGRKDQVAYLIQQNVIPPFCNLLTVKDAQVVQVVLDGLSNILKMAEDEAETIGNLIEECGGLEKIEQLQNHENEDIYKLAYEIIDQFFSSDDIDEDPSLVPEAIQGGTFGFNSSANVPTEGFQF

[6] = biological target: T6, NPI-1 404–541 C-terminal peptide mutant, GST cleaved (human, UniProt P52294 404-538); test: SPR; settings: both partners purified
T6 construct: also called NPI-1 406–538 (methods); source: E. coli BL21 CodonPlus (DE3)-RIL, purified (Glutathione Sepharose 4FF), GST cleaved with PreScission protease

[7] = biological target: Rch1 (importin α1), full-length, GST cleaved (human), P52292; test: SPR; settings: remark: other sources report otherwise

T6 sequence (P52294 404-538, change not shown): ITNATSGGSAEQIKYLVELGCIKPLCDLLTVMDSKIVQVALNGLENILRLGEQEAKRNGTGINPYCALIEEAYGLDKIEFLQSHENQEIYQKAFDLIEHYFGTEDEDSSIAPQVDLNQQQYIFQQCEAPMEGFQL
T3 sequence (P52294 whole entry): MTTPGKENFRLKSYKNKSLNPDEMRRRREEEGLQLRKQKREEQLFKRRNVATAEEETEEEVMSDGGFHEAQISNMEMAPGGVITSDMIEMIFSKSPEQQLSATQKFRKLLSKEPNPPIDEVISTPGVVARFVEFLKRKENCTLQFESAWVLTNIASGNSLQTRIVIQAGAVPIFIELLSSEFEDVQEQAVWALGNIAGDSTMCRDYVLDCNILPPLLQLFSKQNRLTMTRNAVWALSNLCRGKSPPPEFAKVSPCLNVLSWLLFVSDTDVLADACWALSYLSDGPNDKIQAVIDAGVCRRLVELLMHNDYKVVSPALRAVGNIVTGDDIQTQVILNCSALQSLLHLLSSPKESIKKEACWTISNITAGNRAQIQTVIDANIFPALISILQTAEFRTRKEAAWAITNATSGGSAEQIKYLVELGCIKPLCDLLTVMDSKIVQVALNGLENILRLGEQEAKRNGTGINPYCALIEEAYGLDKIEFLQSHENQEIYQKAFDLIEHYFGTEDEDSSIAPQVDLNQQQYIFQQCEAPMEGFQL
T1 sequence (P52294 whole entry): as above

B1: cellular apoptosis susceptibility (CAS) protein, recombinant (natural protein, UniProt P55060 1-971, looked up)
chain: MELSDANLQTLTEYLKKTLDPDPAIRRPAEKFLESVEGNQNYPLLLLTLLEKSQDNVIKVCASVTFKNYIKRNWRIVEDEPNKICEADRVAIKANIVHLMLSSPEQIQKQLSDAISIIGREDFPQKWPDLLTEMVNRFQSGDFHVINGVLRTAHSLFKRYRHEFKSNELWTEIKLVLDAFALPLTNLFKATIELCSTHANDASALRILFSSLILISKLFYSLNFQDLPEFFEDNMETWMNNFHTLLTLDNKLLQTDDEEEAGLLELLKSQICDNAALYAQKYDEEFQRYLPRFVTAIWNLLVTTGQEVKYDLLVSNAIQFLASVCERPHYKNLFEDQNTLTSICEKVIVPNMEFRAADEEAFEDNSEEYIRRDLEGSDIDTRRRAACDLVRGLCKFFEGPVTGIFSGYVNSMLQEYAKNPSVNWKHKDAAIYLVTSLASKAQTQKHGITQANELVNLTEFFVNHILPDLKSANVNEFPVLKADGIKYIMIFRNQVPKEHLLVSIPLLINHLQAESIVVHTYAAHALERLFTMRGPNNATLFTAAEIAPFVEILLTNLFKALTLPGSSENEYIMKAIMRSFSLLQEAIIPYIPTLITQLTQKLLAVSKNPSKPHFNHYMFEAICLSIRITCKANPAAVVNFEEALFLVFTEILQNDVQEFIPYVFQVMSLLLETHKNDIPSSYMALFPHLLQPVLWERTGNIPALVRLLQAFLERGSNTIASAAADKIPGLLGVFQKLIASKANDHQGFYLLNSIIEHMPPESVDQYRKQIFILLFQRLQNSKTTKFIKSFLVFINLYCIKYGALALQEIFDGIQPKMFGMVLEKIIIPEIQKVSGNVEKKICAVGITKLLTECPPMMDTEYTKLWTPLLQSLIGLFELPEDDTIPDEEHFIDIEDTPGYQTAFSQLAFAGKKEHDPVGQMVNNPKIHLAQSLHKLSTACPGRVPSMVSTSLNAEALQYLQGYLQAASVTLL
notes: also called CSE1L; source: E. coli BL21 CodonPlus (DE3)-RIL, purified (Glutathione Sepharose 4FF)
mRFP-Vpr bound to GST-NPI-1 with CAS and Q69LRanGTP, fold of the sample without CAS [1]: 0.2 fold

B2: GST-tagged-Vpr (natural protein)
chain: MEQAPEDQGPQREPYNEWTLELLEELKSEAVRHFPRIWLHNLGQHIYETYGDTWAGVEAIIRILQQLLFIHFRIGCRHSRIGVTRQRRARNGASRS
notes: also called GST-Vpr; source: E. coli, purified (GSH system, His-Trap column), dialyzed against transport buffer
Kd [2]: 6.8 µM
Kd [3]: 7.4 µM
Kd [4]: 4.3 µM
Kd [5]: 6.5 µM
Kd [6]: 6.7 µM
Kd [7]: 8.9 µM
